Results as given in the DeepSol protein solubility set.

Test: soluble on expression in E. coli; label from the status in PepcDB or PDB records

| Sequence | soluble on expression in E. coli |
| --- | --- |
| MSLRVKTMVFTPFISMVGVTGSMGPFFCEFTLNGDLLPINYPATYTHELAHLLGISSEAEANFYAYQVCTRSQIKGIRFSGYFSILNHVLGNARRLLSEKEYADIINRIRPEIIELAKKNQEYWMAKYSPLIGDVQNWIYDLYLKGNKIESGRKNYSEVIGLLISYQVWKAKTASDEGHHHHHH | not soluble |
| MKSIYYLSADDLFQMNTFLIQTYSPAEQIGIKDRNALEMASNQPAQFVFDVDLYPTIEEKAAILMINIATKHCFYNANKRTAVMATDLFLQLNGYDFQLDTQEGVDLLVFIATYRSDFDQLKNDVSKVIRAKLNHTSSHLEHHHHHH | soluble |
| MGSDKIHHHHHHMRIHVLCDDSSQNGFESEHGFSVLVDSVLFDTGKSDVFLKNARKLGIDLPKDVLISHGHYDHAGGLLYLSGKRVWLRKEALDQKYSGERYAGADWNEVLYYNTGKFVIERITEIGKNMFLLGPANLRGKVPTGDFFVERNGERRKDLFEDEQTLVVRTKEGLVVITGCSHRGIDNILLDIAETFNERIKMVVGGFHLLKSSDDEIEKIVKAFNELGVETVVPCHCTGERAVDIFKREFLGKIMDCYAGLKLEVSD | soluble |
| MRDVAIIGVKNTKFGELWERSLRDIVVEAGIGAIQDAGVSGKDIDALYIGNMSGGRFVEQEHIGALIADYSGLSRNLHVPATRVEAACASGGLALRQAIMAVASGYSEIVVAAGAEKMTDVGSEEASSALAAAADREWEGMAGATFPGLYAMIAKLHMHMYGTTGEQLAEVAVKNHKNGSFNPIAQYKNTITVDNVLNSIMVADPLHIFDCSPITDGASALVLAPAEIAHKYTDTPIYIKATAQASDTIALHDRRDITTLDATVMAAKRAYSMAKLTPEDIDLVEVHDCFTIAEICAIEDLGFAEKGKGGIVTENGETAIGGRIPVNTSGGLKACGHPVGATGIKQAVEIVTQLRGEAGKRQVEGAEYGMTHNVGGSGATAVVHIFSRGM | not soluble |
| MSLKGNLDVIPQPQEIVLARDTTPFIIDRSTTIVYPATNEKMHRTADFLATFIKEMTGTEVHVSDKEKSSNAIILAVDSTMGHPEGYKLQITPEKVLLTGGSEAGVFYGIQTIHKALPILKDGKVAAALPAGTVTDFPRFRYRGFMIDVGRHFFPVSYLKQMIDLMALHNINYFHWHLTEDQGWRIEIKKYPKLTEIGSKRDSTIIDWETKKFDGKPHSGFYTQDEAREIVRYAADRFITVVPEIDLPGHTTAALASYPELGCTGGPYKVLCSFGVFPDVLCAGNDQTLQFTKDVLDEIMDIFPSEYIHIGGDECPKSRWEKCPKCQAKIKELGIKALPKHSKENQLQTYFMSELEKEINAHGRRMLGWDEVLEGGLTPNSTIMSWRGIQGGIEAARQHHDVIMTPIQRLYFSNPRINKMTGFEWMNRVYNFEPVPAELTDAEKKFVIGTQGCIWTEWTADSTKMEWQILPRMAALSEIQWTLPEHKNFERFMERLPEMLKIYSSLDYGYREDVFAADTLKTHKEGHHHHHH | soluble |
| MAQSKHGLTKEMTMKYRMEGCVDGHKFVITGEGIGYPFKGKQAINLCVVEGGPLPFAEDILSAAFNYGNRVFTEYPQDIVDYFKNSCPAGYTWDRSFLFEDGAVCICNADITVSVEENCMYHESKFYGVNFPADGPVMKKMTDNWEPSCEKIIPVPKQGILKGDVSMYLLLKDGGRLRCQFDTVYKAKSVPRKMPDWHFIQHKLTREDRSDAKNQKWHLTEHAIASGSALP | soluble |
| MIVDTSVWIAYLSTSESLASRWLADRIAADSTVIVPEVVMMELLIGKTDEDTAALRRRLLQRFAIEPLAPVRDAEDAAAIHRRCRRGGDTVRSLIDCQVAAMALRIGVAVAHRDRDYEAIRTHCGLRTEPLF | not soluble |
| MSEEHIAVTRFREYLRVNTEQPNPDYVACRDFLFKYADEVGIERKAVETAPGVYFVIMTIPGSQPELPSIMLYSHTDVVPTFREHWTHDPYSAFKDEDGNIFARGAQDTKCLGVQHVEAFRNLFAKGAKQWKRTIHVVWGPDEETGHINGMKGFVETNEFKKLNIGFSLDEGHASENGVYLTFYAERVTWWLKVTAPGNPGHGSQFMENTAMEKIERFLASARAFRNEQKELLEKNPTWALGDVTTLNVNILKGGVQFNVIPEKFEAYVDIRLTPNQDFGEIRAKLDQWVKDAGEGVTYEFSQHSDYKPVSPHTRDDPFWAAFEDSLKQENCEFTTEVCVGSTDSRFVRKAGVPAINFSPMINTPVRAHAHNEFLNEKVFLRGVEIFETLINNLGNV | not soluble |
| MGSDKIHHHHHHMNTKDLAYFDELISQKNFSKVAKTFGVSQPTVTTAIKRLESEFGAPLVIRDRVKNTLHVTASGAQLAEHAKIVLHELRLAHQEIDNLSQNRLILGLPPIIENHYFPKIGARLAAEGLLAGLETIEGGSIWLRNAVRDGRVDMTLLGSVEPLAYQTLIAEEFDRQPFCIYVSKQHPLAQRKRVYFNELRREKFVFFNSNFIHNTAFNKLTRRNHFRPNIVFRSNDTHVLMKLIGENVGIGFFTKIVDHYRTDVVRLDLMDIEPPEFITSIVYRTTHILTPVQQQLLTILHETLAVDTDQTD | not soluble |
| MDVIRSSASDILGALRSRQLSSEAVMEATLARIAAVNPELNAIVALRPTDELLAEARAADAVAPEARGALHGLPIAVKDLVETAGIVSSHGSPLFRDHVPERDDLIAARIRAAGAILIGKTNVPEFGLGSHTFNPVYGATGNPYAPNLTCGGSSGGAAVALATGMTALADGSDMMGSLRNPAAWCNVYGFRPSWGRVPSEPLGDTFLHQLATLGPMGRSPADIAILLDVISGADPRQPHGFDSAPVAPLRPAATRGLRLGWLGDWGGAFPTEPGILPLCETALKIFSDLGCTVEKVPPPFDAEALWESWITLRSWSVGAGLAPLSEKRAQLKDSAQWELDRGLALSAMEVDRASVTRSAWFMRATELFESYDALILPSAQVWPFDLDRPYPTEIAGQAMDTYHRWMQVVTPVSLIGLPSLAMPAGFGDAGLPMGVQIFGPRGGDAALLALGEAYHAATTWPQRHP | not soluble |
| MATLLFFSKPISDFVLGDKVGFDAKILESNDRILLIKPLQIGVDSNISVIDNEGKIFSFYVFSTTFTSSKHPNLQVFIEDKNYYSNAFLKPQKENMAENAPKDAPTNNKPLKEEKEETKEKEEETITIGDNTNAMKIVKKDIQKGYKALKSSQRKWYCLGICSKKSKLSLMPKEIFNDKQFTYFKFDKRLALSKFPVIYKVVDGYDNPVNTRIVGDYIIAEDVSAKWTLRLGKDYLCIRFVKKAKDE | not soluble |
| MSIFQSFKSVAAAIAVCAGIFTGFSANAQSVDDIVKRGSVKIGVLVGAPPFGSVDAQGNPVGYDADVATLIGKYLGVPVTMVQLTPPSRIPALESGKVDFLVATLAPTPERAKAVMFTNPYSAFQVGIYSHKDTKIEKWEDLKGMTVGVNRGSSVEREFVNREKELGLTILRFDDDATTMQALFSGQVQAIAGPDAQANAAIKLRGDTTTEVKFFFSIQPNSMTVRKDAVDLHQWLNNTIYYIKQNGELDAIARKWVGTPLPVLPTF | not soluble |
| MAISKKKRFFFDLAQDEDDAETVQEVKKVEQQLKLEPVVQPQHDLTNQTKANQSSQDRKFFSKDMPQFDFGPLLKFGDEFVKSFNQFPKQEPQTSTQPVNVQPQSEPTNFNNQVPTQPVHQTAEVHLNEFQQPTTTNFNQQPVATSNIQVEATQPIVEPVPQPEPQPAVEQPQVKQTTRPSNKLQEEENLPPPKAKVPGIIPLERQERLTTGVHFYTSTRVWNKVKRYAKAVNIPISRILTMILDQVIEE | soluble |
| MAHHHHHHMKENYMIRHLFKKYGLKCYNSMSKGLLSNIRNGNSIVLYEKNVNKNLMNLLYKKHYNTYKNRVFNSAMYNNTPSNYMNNPENNNMNHLQNNSNYKYENPNNYYQPKYNNNLNNETNENNTTYQYFSIFGSTAMCLIKPIFPDYITNKNKVTIYGKGGFQFVFMRKQSNSNKYDKNNKMNIFIKINSLSNVLSLNDVEKLKNPIIIKGSNNNYLTIDKHKEKKDHIVIKYKYQPSNSPENNFNDMNNMDTDINENMIINDVNDEKRNNFEELHVSFSFSEFLLFQKAANLLLPQLIGWAKQY | not soluble |
| MLTITQALVDQIVAHARQDHPDEACGVVAGPEGSGRPERFIPMLNAARSPTFYEFDSGDLLKLYREMDDRDEEPVIIYHSHTATEAYPSRTDISYANEPGAHYVLVSTADADDAGPFQFRSFQIVAGEVTEEEVKVVEAYLEHHHHHH | soluble |
| MSLGEESRDPVAALRLIKHDQQANLYVLCDLHPFLGDSPTLVRLLKEIAMAEGNHRPTVVLVSHALKLPAEVQRFAARFSLSLPSEDELLGIVREEATRWSERNRGARVRTDNRTLQQVVKNLRGLSHAEARLLARNVICNDGAITQEDLPELNRTKFQLLDLEGVLSFEYDTARFAEVGGLAALKRWLGERQSAFLAGKPGDQPKGMMLVGVQGAGKSLAAKAVAGLWGLPLLRLDFACLYNKYFGETERNLREALRLAEQMAPCVLWMDEVEKGISGGDQDNGVSQRVLGTLLTWMAEREAPVFMVATANAIDRLPPELIRKGRFDELFFVDLPTPEVRAEIFRIHLQRRELEPAQFDLHLLAAASEGFSGAEIEQAVVAALYAGQARQQAVDQDLLLRELARTSPLSVLMAEKLAALRTWAKGRAVPADEGHHHHHH | not soluble |
| MKNPRHIAVIDIGKTNAKLALVDLQNHREIAVLTRPNTVLPGPPWRHFDTDGHWDFLLAALKVLHGEHGIDAISISTHGASVVLLDAQGDLAAPVLDYEHPIPADIAQAYDAIRPPFAQTGSARLANGLNVGAQLFYQFAQDPGLRDRTRHIVGYPQYWGHRLTGEFAWDVTSIGCHTDLWEPVTGRFSSLVDRLGIAEKLAPVRHCADVLGSILPEVAAATGLSADTPVTVGIHDSNASLYPHLLTQEAPFSVVSTGTWVVAMAVGSKVPGLDPTRDTLVNVNAMGQPVPSARFMGGREHEVIQAGQPCPPTPQDVAQVLADSVMILPAVEPASGPFQGRKMRWSGPEPAPGTGPRSAALSFYLALMTSTCLALIAARGVTIVEGPFAQNREFKSMLSVATGRAVLHSQSATGTSMGASLLFSSDRTPPLPQTNVSEEDAQAYRTYAKEWHQQITLEHHHHHH | not soluble |
| MTTKNKRVLQKCAYREEFKGDMERSTAATSKLPLEVELSRNSKGLIIILSSPSGTGKSSLAKALLKIDNNLRLSISATTRKPRLGEVEGINYYFKTGLEFEELVKQNKFLEYAKIYDNYYGTPKEYVEMLLNQGLDVLFDIDWQGARSIKKNATNVVTIFVLPPNIEVLEQRLRNRATDNEEAIKLRMQLAQNEISHANEYDYVVTNDDFDRTLKKIHAIIVAARDKAF | soluble |
| MPEGKIIKALSGFYYVLDESEDSDKVIQCRGRGIFRKNKITPLVGDYVVYQAENDKEGYLMEIKERTNELIRPPICNVDQAVLVFSAVQPSFSTALLDRFLVLVEANDIQPIICITKMDLIEDQDTEDTIQAYAEDYRNIGYDVYLTSSKDQDSLADIIPHFQDKTTVFAGQSGVGKSSLLNAISPELGLRTNEISEHLGRGKHTTRHVELIHTSGGLVADTPGFSSLEFTDIEEEELGYTFPDIREKSSSCKFRGCLHLKEPKCAVKQAVEDGELKQYRYDHYVEFMTEIKDRKPRY | not soluble |
| MGSDKIHHHHHHMREKIDALTQNLNRTIVGKTEAIRLVLVALLGGGHALLEDVPGVGKTLLAKSLARSLDGTFQRLQCTPDLLPTDITGTNIWNPKSGEFSFMPGPVFANVVLADEINRATPRTQSALLEVMEEQQVTVDGVSRTVPHPFFVIATQNPVEYQGTFPLPEAQMDRFMLSLSLGYPGVDEELEMLQNLQHGIKVGDLQPCLTLAEVAELREICSQVKVETVLQQYILELVRSTRQDEEITLGVSPRGTVALHKATQALAFLLGRDYAIPDDVKFLAPHVLCHRLIARGGRSARSIVDRLLRSLPIP | not soluble |
| MSTDNLLQPKLIEATLGDYPVIQNMARFYVYDMSRYCGFISEEWTCPPDGLYESYDFKIYFTDPERKAFLIQIDNELAGFALLNKFGIQAVDWSMGEFFILAKFQGKGIGQSVAHQLWRTHPGEWEISVIPENIPALSFWRQAVMTYTL | not soluble |
